Test results taken from US20190359719A1 (published 2019).

T1: recombinant c-Met extracellular domain (R&D Systems cat#358-MT-100/CF) (UniProt P08581 25-932)
T1 chain: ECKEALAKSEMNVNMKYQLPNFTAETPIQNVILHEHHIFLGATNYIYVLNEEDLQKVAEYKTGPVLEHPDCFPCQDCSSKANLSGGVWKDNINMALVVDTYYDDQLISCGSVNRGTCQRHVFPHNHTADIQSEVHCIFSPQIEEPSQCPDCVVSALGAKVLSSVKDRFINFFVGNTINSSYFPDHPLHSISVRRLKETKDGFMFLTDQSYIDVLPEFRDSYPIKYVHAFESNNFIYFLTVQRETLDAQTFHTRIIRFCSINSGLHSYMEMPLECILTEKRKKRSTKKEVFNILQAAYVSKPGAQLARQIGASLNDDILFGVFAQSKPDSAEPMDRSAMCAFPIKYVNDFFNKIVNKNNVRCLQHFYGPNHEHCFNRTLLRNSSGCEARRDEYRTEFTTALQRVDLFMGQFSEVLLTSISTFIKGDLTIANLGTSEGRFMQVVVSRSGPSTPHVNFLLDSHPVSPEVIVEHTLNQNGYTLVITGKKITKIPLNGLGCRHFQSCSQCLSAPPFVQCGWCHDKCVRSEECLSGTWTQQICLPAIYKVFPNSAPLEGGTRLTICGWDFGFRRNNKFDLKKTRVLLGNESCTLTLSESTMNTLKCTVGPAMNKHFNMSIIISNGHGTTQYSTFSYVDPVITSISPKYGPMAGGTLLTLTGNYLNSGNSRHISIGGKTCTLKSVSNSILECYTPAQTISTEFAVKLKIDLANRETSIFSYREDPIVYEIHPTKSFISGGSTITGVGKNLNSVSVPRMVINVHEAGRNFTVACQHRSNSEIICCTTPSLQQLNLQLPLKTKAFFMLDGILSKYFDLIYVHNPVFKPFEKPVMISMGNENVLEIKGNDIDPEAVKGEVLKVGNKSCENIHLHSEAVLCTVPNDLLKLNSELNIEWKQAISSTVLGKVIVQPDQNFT


Target: T1, recombinant c-Met extracellular domain …
Assay: ELISA, blocking of HGF binding to c-Met

Row | IC50 | Binder
1 | 2.69 nM | El-A18 (E1 derived anti-c-Met antibody) (antibody, V domains shown) VH: not shown VL: QSVVTQPPSVSGAPGQRVTISCIGSASNIGAGHDVHWYQQLPGTAPKLLIYGNSNRPSGVPDRFSGSKSGTSASLAITGLQAEDEADYYCQSYSSSLSAYVFGTGTKVTVL
2 | 2.61 nM | El-A10 (E1 derived anti-c-Met antibody) (antibody, V domains shown) VH: not shown VL: QSVVTQPPSVSGAPGQRVTISCLGSASNIGAGHDVHWYQQLPGTAPKLLIYGNSNRPSGVPDRFSGSKSGTSASLAITGLQAEDEADYYCQSYSSSLSAYVFGTGTKVTVL
3 | 2.98 nM | El-B11 (E1 derived anti-c-Met antibody) (antibody, V domains shown) VH: QVQLVQSGAEVKKPGASVKVSCKASGYTFSGDYIHWVRQAPGQGLEWMGWINPNSGGTNYAQKFQGRVTMTRDTSISTAYMELSRLRSDDTAVYYCAREPARDYYYYDGLDVWGQGTTVTVSS VL: QSVVTQPPSVSGAPGQRVTISCIGSSSNIGAGYDVHWYQQLPGTAPKLLIYGNSNRISGVPDRFSGSKSGTSASLAITGLQAEDEADYYCQSYSSSLSAVLFGTGTKVTVL
4 | 2.63 nM | El-B19 (E1 derived anti-c-Met antibody) (antibody, V domains shown) VH: QVQLVQSGAEVKKPGASVKVSCKASGFTFSGDYIHWVRQAPGQGLEWMGWINPNSGGTNYAQKFQGRVTMTRDTSISTAYMELSRLRSDDTAVYYCAREPGRDYYYYDGLDVWGQGTTVTVSS VL: QSVVTQPPSVSGAPGQRVTISCLGSASNIGAGHDVHWYQQLPGTAPKLLIYGNSNRPSGVPDRFSGSKSGTSASLAITGLQAEDEADYYCQSYSSSLSAVLFGTGTKVTVL
5 | 2.26 nM | El-A11 (E1 derived anti-c-Met antibody) (antibody, V domains shown) VH: QVQLVQSGAEVKKPGASVKVSCKASGFTFSGDYIHWVRQAPGQGLEWMGWINPNSGGTNYAQKFQGRVTMTRDTSISTAYMELSRLRSDDTAVYYCAREPARDYYYYDGLDVWGQGTTVTVSS VL: QSVVTQPPSVSGAPGQRVTISCLGSSSNIGAGHDVHWYQQLPGTAPKLLIYGNSNRISGVPDRFSGSKSGTSASLAITGLQAEDEADYYCQSYSSSLSAYLFGTGTKVTVL
6 | 3.11 nM | El-BR1 (E1 derived anti-c-Met antibody) (antibody, V domains shown) VH: QVQLVQSGAEVKKPGASVKVSCKASGSTFSGDYLHWVRQAPGQGLEWMGWINPNSGGTNYAQKFQGRVTMTRDTSISTAYMELSRLRSDDTAVYYCAREPARDYYYYDGLDVWGQGTTVTVSS VL: QSVVTQPPSVSGAPGQRVTISCLGSASNIGAGYDVHWYQQLPGTAPKLLIYGNSNRPSGVPDRFSGSKSGTSASLAITGLQAEDEADYYCQSYSSSLSAVLFGTGTKVTVL
7 | 2.31 nM | El-A14 (E1 derived anti-c-Met antibody) (antibody, V domains shown) VH: QVQLVQSGAEVKKPGASVKVSCKASGYTFSGDYIHWVRQAPGQGLEWMGWINPNSGGTNYAQKFQGRVTMTRDTSISTAYMELSRLRSDDTAVYYCAREPARDYYYYDGLDVWGQGTTVTVSS VL: QSVVTQPPSVSGAPGQRVTISCIGSSSNIGAGHDVHWYQQLPGTAPKLLIYGNSNRPSGVPDRFSGSKSGTSASLAITGLQAEDEADYYCQSYSSSLSAYVFGTGTKVTVL

Target: T1, recombinant c-Met extracellular domain …
Assay: Octet Red (BLI)

Row | Kd | Binder
8 | 1.9 nM | D6 anti-c-Met antibody in IgG format (antibody, V domains shown) VH: QVQLQQWGAGLLKPSETLSLTCAVYGGSFSGYYWSWIRQPPGKGLEWIGEINHSGSTNYNPSLKSRVTISVDTSKNQFSLKLSSVTAADTAVYYCARGRDGYDFDPWGQGTLVTVSS VL: QSVLTQPPSASGSPGQSVTISCTGTSSDVGGYNYVSWYQQHPGKAPKLMIYEVSKRPSGVPDRFSGSKSGNTASLTVSGLQAEDEADYYCSSYAGSNNLVVFGGGTQLTVL
9 | 2.2 nM | A2 (antibody, V domains shown) VH: QVQLQESGPGLVKPSGTLSLTCAVSGGSISRSNWWSWVRQPPGKGLEWIGEVYHSGSTNYNPSLKSRVTISVDKSKNQFSLKVNSVTAADTAVYYCARDSDGGYYFDYWGQGTLVTVSS VL: LPVLTQPASVSGSPGQSITISCTGTSSDVGGYKYVSWYQQHPGKAPKLLIYDVTDRPSGVSNRFSGSQSGNTASLTISGLQTEDEADYYCSSYTDNGALVVFGGGTKLTVL

Target: T1, recombinant c-Met extracellular domain …
Assay: Octet Red (BLI)
Remark: another data set of the same source

Row | Kd | Binder
10 | 0.8 nM | H8 anti-c-Met antibody in IgG format (antibody, V domains shown) VH: EVQLVQSGAEVKKPGASVKVSCKASGYTFSSYYMHWVRQAPGQGLEWMGWINPNSGNTGYAQKFQGRVTMTRNTSISTAYMELSSLRSEDTAVYYCARRGTTVSFDYWGQGTLVTVS VL: QLVLTQSPSVSVAPGQRVTISCSGSNSNIGNNYVSWYHHLPGTAPKLLIYDNNKRPSGIPDRFSGSKSGTSATLGITGLQPGDEAHYYCGTWDSTLSAGVFGGGTKLTVL

Target: T1, recombinant c-Met extracellular domain …
Assay: ELISA, blocking of HGF binding to c-Met
Remark: another data set of the same source

Row | IC50 | Binder
11 | 1.44 nM | A1-4 anti-c-Met antibody (antibody, V domains shown) VH: QVQLQESGPGLVKPSQTLSLTCTVSGGSISSGGYYWSWIRQHPGKGLEWIGESSHSGSTNYNPSLKSRVTISVDTSKNQFSLKLSSVTAADTAVYYCARGRDGYYFDAWGQGTLVTVSS VL: LPVLTQPASVSGSPGQSITISCTGTSSDVGGYPYVSWYQQHPGKAPKLMIYVVSDRPSGVSTRFSGSKSGNTASLTISGLQAEDEADYYCSSYRSSSALVVFGGGTQLTVL
12 | 0.91 nM | A1-32 anti-c-Met antibody (antibody, V domains shown) VH: QVQLQESGPGLVKPSQTLSLTCTVSGGSISSGGYYWSWIRQHPGKGLEWIGESTHSGSTNYNPSLDSRVTISVDTSKNQFSLKLSSVTAADTAVYYCARGRDGYYLDQWGQGTLVTVSS VL: LPVLTQPASVSGSPGQSITISCTGTSFDVGGYPYVSWYQQHPGKAPKLMIYDVSDRPSGVSTRFSGSKSGNTASLTISGLQAEDEADYYCSSFRSSAALVVFGGGTKLTVL
13 | 1.52 nM | A1-24 anti-c-Met antibody (antibody, V domains shown) VH: QVQLQESGPGLVKPSQTLSLTCTVSGGSISSGGYYWSWIRQHPGKGLEWIGESTHSGSTNYNPSLESRVTISVDTSKNQFSLKLSSVTAADTAVYYCARGRDSYDFDAWGQGTLVTVSS VL: LPVLTQPASVSGSPGQSITISCTGTSFDVGGYNYVSWYQQHPGKAPKLMIYDVSDRPSGVSTRFSGSKSGNTASLTISGLQAEDEADYYCSSFRSSAALVVFGGGTKLTVL
14 | 1.72 nM | A1-9 anti-c-Met antibody (antibody, V domains shown) VH: QVQLQESGPGLVKPSQTLSLTCTVSGGSISSGGYYWSWIRQHPGKGLEWIGEISHSGSTNYNPSLKSRVTISVDTSKNQFSLKLSSVTAADTAVYYCARGRDGYYLDQWGQGTLVTVSS VL: LPVLTQPASVSGSPGQSITISCTGTSSDVGGYNYVSWYQQHPGKAPKLMIYNVSDRPSGVSTRFSGSKSGNTASLTISGLQAEDEADYYCSSFRSSSALVVFGGGTKLTVL
15 | 1.22 nM | A1-2 anti-c-Met antibody (antibody, V domains shown) VH: QVQLQESGPGLVKPSQTLSLTCTVSGGSISSGGYYWSWIRQHPGKGLEWIGESTHSGSTNYNPSLKSRVTISVDTSKNQFSLKLSSVTAADTAVYYCARGRDGYDFDAWGQGTLVTVSS VL: LPVLTQPASVSGSPGQSITISCTGTSFDVGGYNYVSWYQQHPGKAPKLMIYDVSDRPSGVSTRFSGSKSGNTASLTISGLQAEDEADYYCSSFRSSSALVVFGGGTKLTVL
16 | 1.14 nM | A1-8 (antibody, V domains shown) VH: QVQLQESGPGLVKPSQTLSLTCTVSGGSISSGGYYWSWIRQHPGKGLEWIGEISHSGSTNYNPSLESRVTISVDTSKNQFSLKLSSVTAADTAVYYCARGRDGYDLDRWGQGTLVTVSS VL: LPVLTQPASVSGSPGQSITISCTGTSSDVGGYPYVSWYQQHPGKAPKLMIYRVSDRPSGVSTRFSGSKSGNTASLTISGLQAEDEADYYCSSYRSSAALVVFGGGTKLTVL
17 | 1.34 nM | A1-6 anti-c-Met antibody (antibody, V domains shown) VH: QVQLQESGPGLVKPSQTLSLTCTVSGGSISSGGYYWSWIRQHPGKGLEWIGEITHSGSTNYNPSLKSRVTISVDTSKNQFSLKLSSVTAADTAVYYCARGRDGYDIDAWGQGTLVTVSS VL: LPVLTQPASVSGSPGQSITISCTGTSWDVGGYPYVSWYQQHPGKAPKLMIYDVSDRPSGVSTRFSGSKSGNTASLTISGLQAEDEADYYCSSYRSVSALVVFGGGTKLTVL
